Molecular target: Staphylococcus aureus alpha-hemolysin (Staphylococcus aureus, UniProt P09616)
Sequence (P09616 27-319 limits assumed): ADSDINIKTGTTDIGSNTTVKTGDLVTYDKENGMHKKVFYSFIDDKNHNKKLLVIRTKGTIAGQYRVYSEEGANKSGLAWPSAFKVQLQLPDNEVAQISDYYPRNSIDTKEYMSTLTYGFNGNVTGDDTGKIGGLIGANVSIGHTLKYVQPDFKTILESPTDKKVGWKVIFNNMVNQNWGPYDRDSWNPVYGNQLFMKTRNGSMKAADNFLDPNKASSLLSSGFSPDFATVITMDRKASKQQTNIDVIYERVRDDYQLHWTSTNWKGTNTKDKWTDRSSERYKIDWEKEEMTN

B1: CAN24G4 monoclonal antibody (antibody, V domains shown)
VH: EVHLQQSGAELVKPGASVRLSCTGSGLDIKDTYIHWVKKRPEQGLEWIGRIDPANGITKYDPKFQGKATVTADTSSNTAYLQFSSLTSEDSAVYYCSSEYYPYPMDYWGQGTSVTVSS
VL: DIKMTQPPSSMYASLGERVTVTCKASQDISSFLTWFQQKPGKSPKILIYRANRVVDGVPSRFSGSGSGHDYSLTISSLESEDMGIYYCLQYDEFPWTFGGGTKLEIK
In the case of B1, the Kd is reported as 9.4 nM, the koff is reported as 0.004 s⁻¹ and the kon is reported as 430000 M⁻¹ s⁻¹.

From patent US20140286960A1 (CANGENE, published 2014)
